Data taken from patent US20210238262A1 (HENRY M JACKSON FOUNDATION FOR THE ADVANCEMENT OF MILITARY …, published 2021).
Numbering of substitutions follows the chain as printed.

B1: rhMZ124-D (antibody, V domains shown)
VH: QVQLQESGPGLVKPSETLSLTCAVSGDSISSGYYWGWIRQSPGRGLESFGFISGSGGTTYYNPSLKTRVTISKDTSKNQFSLKLSSVTAADTAVYYCARLGHPRGIAAGGVDYWGQGVLVTVSS
VL: QSALTQPPSLSASPGASARLPCTLSSDFSVGNKNMYWYQQKPGSAPGLFLYFYSDSDNQLGPGVPNRVSGSKEASSNTAFLLISGLQPEDEADYYCQVYDRAANILFGGGTRLTVLG
B2: rhMZ100-C (antibody, V domains shown)
VH: EVQLVESGGGLVQPGGSLRLSCAASGFTFSSDGMSWVRQAPGKGLEWVSYISSGGATTYYADSVKGRFTISRDNSKNTLSLQMNSLRGEDTAVYYCAKDITAPGRNGLDSWGQGVVVTVSS
VL: QSVLTQPPSLSASPGASARLPCTLSSDLNVGTKNMYWYQQKPGSAPRLFLYYYSDSDKQLGPGVPNRVSGSKETSSNTAFLLISGLQPEDEADYYCQVYDNSARVFGGGTRLTVLG
B3: rhMZ103-A (antibody, V domains shown)
VH: QVQLQESGPGLVKPSETLSLTCAVSGGSISGGYDWSWIRQPPGKGLEWIGYIYGSSGSTNYNPSLKNRVTISKDTSKNQFSLKLSSVTAADTAVYYCARPAYYEDDYGYYYTTPIFDYWGQGVLVTVSS
VL: QSVLTQPPSASGAPGQSVTISCSGSSSNIGSNYVYWYQQLPGTAPKLLIYYSNQRPSGVPDRFSGSKSGTSASLAITGLRSEDEADYYCAAWDNSLSSVLFGGGTRLTVLG
B4: MZ20 (antibody, V domains shown)
VH: EVQVVESGGGLVKPGGSLRLSCAASGFTFSHFYMTWIRQAPGKGLESISYIGGTGSPTYYADSVVGRFTISRDNAKNSVYLEMNSLRAEDTAIYYCVRAGGARIENWGQGTLVIVSS
VL: DIVMTQSPSSLSASVGDRVTITCQASHDINIYLNWYQQRPGKAPKLLIYDASRLETGVPSRFSGTGSGTDFTFTISNLQPEDFATYFCQHYYTLPRTFGQGTKVDIKR
B5: rhMZ123-A (antibody, V domains shown)
VH: QLVQSGAEVKRPGESLRISCKTSGYSFTSYWISWVRQMPGKGLEWMGMIYPGDSDTRYSPSFQGQVTISADKSISTAYLQWSSLKASDTATYYCAKVDSSGWTNYFDYWGQGVLVTVSS
VL: QSALTQPPSVSKSLGQSVTISCTGTSSDIGGYNGVSWYQQHSGTAPRLLIYDVSKRPSGVSDRFSGSKSGNTASLTISGLQAEDEADYYCCSYRSGSTYIFGAGTRLTVLG
B6: MZ54 (antibody, V domains shown)
VH: EVQLVESGGGLVKPGGSLRLSCSASGFNFRDFYMGWVRQAPGKGLQWVSHIGDSGGAIYYTDSVEGRFSISRDNAKNSLYLQMNSLRVEDTAIYYCVCAGGGRTDYWGQGTLVTVSS
VL: DIVMTQSPSSLSASVGDRVTITCQATQDINIYLNWYQQKPGQAPKLLIYDASRLETGVPSRFSGRGSGTDFTFTISSLQPEDFGTYYCQHYYTVPRTFGQGTKVESRR
B7: rhMZ134-B (antibody, V domains shown)
VH: EVQLVESGGGLAKPGGSLRLSCAASGFTFSDYYMDWVRQAPGKGLEWVSRISNGGGSTWYADSVKGRFTISRENAKNTLYLQMNSLRAEDTAVYYCARGPEYCSSTYCSSAYCTGSGCYVDYGLDSWGQGVVVTVSS
VL: SYELTQPPSVSVSPGQMARITCGGDNIGSKNVQWYQQKPAQAPVLVIYADSERPSGIPERFSGSNSGNTATLTISGVEAGDEADYYCQVWDSSSDHVLFGGGTRLTVLG
B8: rhMZ121-A (antibody, V domains shown)
VH: QVQLQESGPGLVKPSETLSLTCAVSGYSISSGYYWGWIRQPPGKGLEYIGYISGSSGSTYYNPSLKSRVTISKDTSKNQFSLKLSSVTAADTAVYYCARGNYYSGSYYLFWGQGVLVTVSS
VL: B7 VL with M17T, I27L, N31Y, Q33H, A49Y, E52D, N65K, V97W, L98V
B9: MZ4 (antibody, V domains shown)
VH: QVHLQESGPGLVRPSETLSLTCTVSDGSISSYYWSWIRQPPGKGLEWIGSIYYTGSTNYNPSLKSRVTMSVDTSKNQFSLRLNSVTAADTAMYYCAGLDRYSWNEGGDHWGQGILVSVSS
VL: QPVLTQPPSASGTPGQRVSISCSGSRSNLGKNTVNWYQQLPGTAPKLLIYNHSRRPSGVPERFSGSKSGTSASLAISGLQSEDEADYFCAAWDDSLNGLYVFGTGTKVTVLR
notes: also called MHRP ZIKV-1004
B10: MZ1 (antibody, V domains shown)
VH: QVQLQESGPGLVKSSETLSLSCTVSGASISNFYWSWVRQPPGKGLEWMGSIYYTGTITYNPSLKSRLTMSVDTSKNQFSLKLNSVTAADTAVYSCAGLDRFNWNDEGDCWGQGTLVTVFS
VL: B9 VL with P2S, S19T, K31R, T43V, N51S, H52N, S53N, E61D, G69D, R112G
B11: rhMZ133-C (antibody, V domains shown)
VH: EVQLVESGGGLVQPGGSLRLSCAASGFTFSDYYMSWVRQAPGKGPEWVGFIRNKANGGTAEYAASVKGRFTVSRDDSKSIASLQMNSLKTEDTAVYYCAKHYCTGSGCYGAGLDSWGQGVVVTVSS
VL: QSVLTQPPSVSKSLGQSVTISCTGTSSDIGGSNDVSWYQQHPGTAPRLLIYNVSKRPSGVSDRFSGSKSGNTASLTISGLQAEDEADYYCCSYRSGSTLFGGGTRLTVLG
B12: rhMZ119-D (antibody, V domains shown)
VH: EVQLVQSGAEVKRPGESLKISCKTSGYSFTSYWISWVRQMPGKGLEWMGAIDPSDSDTRYSPSFQGQVTISADKSISTAYLQWSSLKASDSATYYCAKEGIAARSLDVWGRGVLVTVSS
VL: SYELTQPPSVSVSPGQTARITCSGDALPKKYAYWFQQKPGQSPVLIIYEDSKRPSGIPERFSGSSSGTVATLTISGAQVEDEADYYCYSTDSSGYHGLFGGGTRLTVLG
B13: MZ56 (antibody, V domains shown)
VH: EVQLVESGGDLVQPGGSLRLSCAASGFTFSNYAMHWVRQAPGKGLESVSAIGSNGDSIFYASSVKGRFTISRDNSKNTLYLQMGSLRADDMAVYFCARGWYYYDSRAYWYFDLWGRGTLVTVSS
VL: QPVLTQPASVSGSPGQSITISCTGTTSDVDDYNHVSWYQQYPGKAPRVMLYDVTKRPSGVPDRFSGSKSGNTASLTISGLQSEDEADYYCCSFADSHAIFGGGTKVTVLG
B14: rhMZ107-B (antibody, V domains shown)
VH: QVQLQESGPGLVKPSETLSLTCAVSGYSISSGYYWGWIRQPPGKGLEYIGYISGSSGSTYYNPSLKSRVTISKDTSKNQFSLKLSSVTAADTAVYYCARRDRVGSYPYYYGLDSWGQGVLVTVSS
VL: QSVLTQPPSLSASPGASARLPCTLSSDLSVGSKNMYWYQQKPGSAPRLFLYYYSDSDKQLGPGVPNRVSGSKETSSNTAFLLISGLQPEDEADYYCQVYDGSANDVFGSGTKLTVLG
B15: rhMZ104-D (antibody, V domains shown)
VH: EVQLVESGGGLAKPGGSLRLSCAASGFTFSDYYMDWVRQAPGKGLEWVSRISNGGGSTWYADSVKGRFTISRENAKNTLYLQMNSLRAEDTAVYYCARERYCSGGVCYAGTKYFDYWGQGVLVTVSS
VL: B14 VL with S2P, G101S, D105W, S109G, K112R
B16: rhMZ101-B (antibody, V domains shown)
VH: EVQLVESGGGLAKPGGSLRLSCAASGFSFSDYYMYWVRQAPGKGLEWVSGISYTGGSTYYADSVKGRFTISRENAKNTLYLQMDSLRAEDTAVYYCARVLYSGSYYYFDYWGQGVLVTVSS
VL: B14 VL with L82V, G101S, D105I

Columns and labels:
[1] = target: T1, Recombinant DENV-2 sE (1-396) from strain 16681-PDK53 with C-terminal AviTag and poly-histidine tags (Dengue virus serotype 2 strain …, UniProt P29991 281-676, biotinylated on the AviTag for BLI); assay: BLI and ELISA on DENV-2 E glycoprotein
T1 construct: Produced in Expi293F cells; biotinylated for BLI; also called DENV-2 E

[2] = target: Whole purified ZIKV (ZIKV/Brazil/2015) virions (Zika virus, ZIKV/Brazil/2015); assay: cell-based or functional assay
[3] = target: ZIKV H/PF/2013 reporter virus particle with E mutant (D67N, A69T) (Zika virus strain H/PF/2013); assay: cell-based or functional assay
[4] = target: T1, Recombinant DENV-2 sE (1-396) from …; assay: ELISA on DENV-2 E
[5] = target: ZIKV PR (Puerto Rican strain, PRVABC59) virus (Zika virus strain PRVABC59); assay: cell-based or functional assay
DENV-2 (S16803) virus = DENV-2 (S16803) virus (Dengue virus serotype 2 strain S16803); assay: cell-based or functional assay

Binder | binding result [1] | binding result [4] | also measured
B1 | no binding | – | –
B2 | no binding | – | FlowNT50 neutralization, IC50 [2]: 1 to 3 µg/mL
B3 | no binding | – | FlowNT50 neutralization, IC50 [2]: 1 to 3 µg/mL; neutralization in the reporter virus particle (RVP) assay, mutant against wild-type ZIKV H/PF/2013 [3]: 5 fold
B4 | – | binds | –
B5 | no binding | – | –
B6 | – | binds | –
B7 | no binding | – | FlowNT50 neutralization, U937-DC-SIGN cells, IC50 [2]: 0.022 µg/mL; micro-neutralization (MN50) in Vero cells, IC50 [5]: 0.0038 µg/mL; neutralization in the reporter virus particle (RVP) assay, mutant against wild-type ZIKV H/PF/2013 [3]: 10 fold
B8 | no binding | – | –
B9 | – | binds | flow-based neutralization assay using human monocytes (FlowNT), IC50 [2]: 0.0083 µg/mL; flow-based neutralization assay using human monocytes (FlowNT), IC50 (DENV-2 (S16803) virus): 0.0209 µg/mL
B10 | – | binds | –
B11 | no binding | – | neutralization in the reporter virus particle (RVP) assay, mutant against wild-type ZIKV H/PF/2013 [3]: 2 fold
B12 | no binding | – | FlowNT50 neutralization, U937-DC-SIGN cells, IC50 [2]: 0.031 µg/mL
B13 | – | binds | –
B14 | no binding | – | FlowNT50 neutralization, IC50 [2]: 1 to 3 µg/mL
B15 | no binding | – | –
B16 | no binding | – | –
